Common to all, as to assay: Y2H (α-galactosidase activity)
The target of experiment [1] is SlTRM17/20a fragment. Particulars: read off a plot.
Experiment [2] addresses SlTRM25 fragment. Particulars: parent: est. 4.2; read off a plot.
The target in experiment [3] is SlTRM5 fragment. Particulars: read off a plot.
For experiment [4], the target named is OVATE. Particulars: read off a plot.
For experiment [5], the target named is SlOFP20. Particulars: read off a plot.
The target in experiment [6] is OVATE^D280R. Particulars: read off a plot.
Experiment [7] concerns the target OVATE D280V. Particulars: read off a plot.
For experiment [8], the target named is OVATE E299V. Particulars: read off a plot.
The target of experiment [9] is SlOFP20^D265R. Particulars: read off a plot.
Experiment [10] concerns the target SlOFP20 D265V. Particulars: read off a plot.
Experiment [11] concerns the target SlOFP20 D284V. Particulars: read off a plot.

Take OVATE D280R: the response (milliunits/(ml×cell)) in experiment [1] (parent: est. 7.2), in experiment [2] and in experiment [3] (parent: est. 7.1) was 0.1 in each case.
Take OVATE D280V: the response (milliunits/(ml×cell)) in [1] (parent: est. 7.2) was determined as 1.6; in [2] it was 0.1; in experiment [3] (parent: est. 7.1), 0.1.
For OVATE E299V, the response (milliunits/(ml×cell)) in experiment [1] (parent: est. 7.2) was 5; in experiment [2] it was 2.5; in [3] (parent: est. 7.1), 3.1.
With SlOFP20 D265R, the figures for the response (milliunits/(ml×cell)) in experiment [1] (parent: est. 7.9), in experiment [2] and in experiment [3] (parent: est. 5.2) were 5.3, 0.1 and 0.1, respectively.
For SlOFP20 D265V, the values for the response (milliunits/(ml×cell)) in experiment [1] (parent: est. 7.9), in experiment [2] and in experiment [3] (parent: est. 5.2) were 6, 0.1 and 0.1, respectively.
For SlOFP20 D284V, the response (milliunits/(ml×cell)) in experiment [1] (parent: est. 7.9) worked out at 7.2; in experiment [2] it was 0.25; in experiment [3] (parent: est. 5.2), 2.5.
Turning to SlTRM5 fragment R374V, the response (milliunits/(ml×cell)) in experiment [4] (parent: est. 7.1) was 4.7; in experiment [5] (parent: est. 5.2), 3.4.
On to SlTRM17/20a fragment K318V, for which the response (milliunits/(ml×cell)) in experiment [4] (parent: est. 7.2) turned out to be 4.2; in experiment [5] (parent: est. 7.9), 4.5.
As for SlTRM25 fragment K327V, the response (milliunits/(ml×cell)) was found to be 2.1 in [4] (parent: est. 4.2) and 1.9 in experiment [5] (parent: est. 4.2).
m3; m1 SlTRM5:R374V; OVATE:D280R: the response (milliunits/(ml×cell)) in experiment [6] (parent: est. 7.1) came to 0.1.
Regarding m3; m1 SlTRM5:R374V; OVATE:D280V, in [7] (parent: est. 7.1), the response (milliunits/(ml×cell)) is 0.1.
With m3; m1 SlTRM5:R374V; OVATE:E299V, the response (milliunits/(ml×cell)) in experiment [8] (parent: est. 7.1) worked out at 3.1.
As for m3; m2 SlTRM5:R374V; SlOFP20:D265R, the response (milliunits/(ml×cell)) in [9] (parent: est. 5.2) came out at 0.1.
In the case of m3; m2 SlTRM5:R374V; SlOFP20:D265V, in experiment [10] (parent: est. 5.2), the response (milliunits/(ml×cell)) was 0.1.
m3; m2 SlTRM5:R374V; SlOFP20:D284V: in [11] (parent: est. 5.2), the response (milliunits/(ml×cell)) worked out at 2.4.
With m4; m1 SlTRM17/20a:K318V; OVATE:D280R, the response (milliunits/(ml×cell)) in [6] (parent: est. 7.2) worked out at 0.25.
For m4; m1 SlTRM17/20a:K318V; OVATE:D280V, the response (milliunits/(ml×cell)) in [7] (parent: est. 7.2) came to 0.9.
Consider m4; m1 SlTRM17/20a:K318V; OVATE:E299V, for which the response (milliunits/(ml×cell)) in experiment [8] (parent: est. 7.2) came out at 4.1.
In the case of m4; m2 SlTRM17/20a:K318V; SlOFP20:D265R, the response (milliunits/(ml×cell)) in experiment [9] (parent: est. 7.9) worked out at 3.
Take m4; m2 SlTRM17/20a:K318V; SlOFP20:D265V: in [10] (parent: est. 7.9), the response (milliunits/(ml×cell)) turned out to be 3.6.
Consider m4; m2 SlTRM17/20a:K318V; SlOFP20:D284V, for which, in experiment [11] (parent: est. 7.9), the response (milliunits/(ml×cell)) was 4.8.
For m5; m1 SlTRM25:K327V; OVATE:D280R, the response (milliunits/(ml×cell)) in [6] (parent: est. 4.2) worked out at 0.1.
On to m5; m1 SlTRM25:K327V; OVATE:D280V, for which, in experiment [7] (parent: est. 4.2), the response (milliunits/(ml×cell)) came to 0.1.
In the case of m5; m1 SlTRM25:K327V; OVATE:E299V, in experiment [8] (parent: est. 4.2), the response (milliunits/(ml×cell)) worked out at 2.3.
Turning to m5; m2 SlTRM25:K327V; SlOFP20:D265R, the response (milliunits/(ml×cell)) in experiment [9] (parent: est. 4.2) is 0.1.
As for m5; m2 SlTRM25:K327V; SlOFP20:D265V, the response (milliunits/(ml×cell)) in experiment [10] (parent: est. 4.2) is 0.1.
Turning to m5; m2 SlTRM25:K327V; SlOFP20:D284V, in experiment [11] (parent: est. 4.2), the response (milliunits/(ml×cell)) was determined as 0.25.

For the origin of these results see paper PMC6226536.
